The source of these data is patent US20110136121A1 (TORAY INDUSTRIES, published 2011).

Assay [1] addresses feline CAPRIN-1, endogenous (serum of cancer-bearing cats) (cat). Put plainly: sandwich ELISA: polyclonal anti-SEQ ID NO: 43 immobilised, serum of cancer-bearing cats, monoclonal antibody 1 ug/ml as secondary antibody. On the technique in general: In an ELISA, binding on a coated surface is turned into a signal by an enzyme label.
Assay [2] concerns the target T1, canine CAPRIN-1, endogenous (canine tissue sections; serum of cancer-bearing dogs) (dog, UniProt A0A8I3S8S8 2-717).
T1 construct: Endogenous protein or fragment of it; also called antigen polypeptide contained in specimens (dog)
T1 sequence: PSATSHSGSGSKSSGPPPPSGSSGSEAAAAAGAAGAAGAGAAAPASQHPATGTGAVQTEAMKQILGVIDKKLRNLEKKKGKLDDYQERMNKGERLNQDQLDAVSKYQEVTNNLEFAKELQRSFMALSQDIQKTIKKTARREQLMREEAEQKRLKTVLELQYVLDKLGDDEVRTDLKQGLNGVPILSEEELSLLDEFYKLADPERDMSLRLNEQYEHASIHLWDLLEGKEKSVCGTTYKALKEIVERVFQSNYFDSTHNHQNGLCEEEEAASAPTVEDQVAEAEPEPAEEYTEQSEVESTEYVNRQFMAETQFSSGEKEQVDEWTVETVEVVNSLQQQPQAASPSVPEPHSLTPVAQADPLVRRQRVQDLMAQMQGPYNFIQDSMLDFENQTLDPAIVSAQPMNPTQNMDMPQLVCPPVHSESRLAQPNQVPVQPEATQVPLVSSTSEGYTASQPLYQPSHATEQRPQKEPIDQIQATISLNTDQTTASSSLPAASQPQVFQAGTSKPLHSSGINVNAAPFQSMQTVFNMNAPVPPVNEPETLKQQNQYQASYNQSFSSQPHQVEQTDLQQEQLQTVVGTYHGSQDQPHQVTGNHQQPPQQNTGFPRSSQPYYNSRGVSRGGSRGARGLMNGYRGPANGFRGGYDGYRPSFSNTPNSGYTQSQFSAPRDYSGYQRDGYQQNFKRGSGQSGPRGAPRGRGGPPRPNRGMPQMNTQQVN
Put plainly: sandwich ELISA: polyclonal anti-SEQ ID NO: 43 immobilised, serum of cancer-bearing dogs, monoclonal antibody 1 ug/ml as secondary antibody. The text has this:
With the use of the polyclonal antibody against CAPRIN-1-derived peptide (SEQ ID NO: 43) obtained in Example 3 (1) and each monoclonal antibody against the CAPRIN-1 protein obtained in Example 3 (2) in combination, the antigen polypeptide itself contained in specimens (cancer-bearing living organism-derived serum) reacted positive upon cancer diagnosis using the polypeptide of CAPRIN-1 in Example 4 (1)-(3) was detected by Sandwich ELISA. The polyclonal antibody was used as a primary antibody and each monoclonal antibody was used as a secondary antibody. The serum protein level of the protein specifically reacting with each of the above antibodies was measured.
The primary antibody was immobilized by adding the polyclonal antibody diluted to a concentration of 5 μg/ml with phosphate buffered saline to 96-well immobilizer amino plates (Nunc) at 100 μl/well and then shaking the plates at room temperature for 2 hours. Blocking was performed by adding a 50 mM sodium bicarbonate buffer solution (pH 8.4) (hereinafter, blocking solution) containing 0.5% BSA (bovine serum albumin, Sigma Aldrich Japan) at 100 μl/well and then shaking at room temperature for 1 hour. Subsequently, a cancer-bearing living organism-derived serum diluted using the blocking solution was added at 100 μl/well and then the resultants were shaken at room temperature for 3 hours for reaction. The dilution rate at this time was adjusted with 10-fold (10-1000-fold) dilution series. After 3 instances of washing with phosphate buffered saline (hereinafter, PBS-T) containing 0.05% Tween20 (Wako Pure Chemical Industries, Ltd.), each monoclonal antibody as a secondary antibody diluted to a concentration of 1 μg/ml with the blocking solution was added at 100 μl/well and then the resultants were shaken at room temperature for 1 hour for reaction. After 3 instances of washing with PBS-T, an HRP-labeled anti-mouse IgG (H+L) antibody (Invitrogen Corporation) as a tertiary antibody diluted 5000-fold with the blocking solution was added at 100 μl per well and then left to stand at room temperature for 1 hour. […]

A value given as a limit tells only on which side of the number the result lay.

B1: monoclonal antibody #2 (antibody, V domains shown)
VH: EVQLHQFGAELVKPGASVKISCKASGYTFTDYNMDWVKQSHGKSLEWIGDINPNYDSTSYNQKFKGKATLTVDKSSSTAYMELRSLTSEDTAVYYCARSRSYDYEGFAYWGQGTLVTVSA
VL: DIQLTQSPASLSASVGETVTITCRASGNIHNYLAWYQQKQGKSPQLLVYNAKTLADGVPSRFSGSGSGTQYSLKINSLQPEDFGSYYCQHFWSTLTFGGGTKLEIK
notes: mouse hybridoma monoclonal antibody; also called anti-CAPRIN-1 monoclonal antibody #2
Consider B1, for which the absorbance at 450 nm (polypeptide level) in assay [1] was over 0.3; in assay [2] it was at least 0.3.

B2: monoclonal antibody #3 (antibody, V domains shown)
VH: B1 VH
VL: SGDRVSLSCRASQSISNYLHWYQQKSHESPRLLIKYASQSISGIPSRFSGSGSGTDFTLSINSVETEDFGMYFCQQSNSWPYTFGAGTKLEIKQ
notes: mouse hybridoma monoclonal antibody; also called anti-CAPRIN-1 monoclonal antibody #3
B2: the “absorbance at 450 nm (polypeptide level)” value in assay [2] is at least 0.3.

B3: monoclonal antibody #6 (antibody, V domains shown)
VH: LQESGAELARPGASVKLSCKASGYTFTSYWMQWVKQRPGQGLEWIGAIYPGDGDTRYTQKFKGKATLTADKSSSTAYMQLSSLASEDSAVYYCARGEYGNYFAYWGQGTTVTVSS
VL: TSDASLGERVTITCKASQDINSYLSWFQQKPGKSPKTLIYRANRLVDGVPSRFSGSGSGQDYSLTISSLEYEDMGIYYCLQYDEFPLTFGGGTKLEIKQ
notes: mouse hybridoma monoclonal antibody; also called anti-CAPRIN-1 monoclonal antibody #6
Turning to B3, the “absorbance at 450 nm (polypeptide level)” value in assay [2] was at least 0.3.
